{
  "source": "patent US20240399042A1",
  "target": "SARS-CoV-2 (2019-nCoV) Spike S1-His Recombinant Protein (HPLC-verified), Sino Biological Catalog Number 40591-V08H (SARS-CoV-2) (UniProt P0DTC2)",
  "data": [
    {"substance": "Galanthus nivalis agglutinin (GNA) (from UniProt P30617 24-128)", "values": [
      {"measurement": "percent of S1 depleted at 15 minutes", "result": "> 90", "unit": "%"}
    ]}
  ]
}
